The target of experiment [1] is TNcc-HI E1/E2 complexes from lysates of HEK293 cells transfected with an E1/E2 expression plasmid (hepatitis C virus genotype 1a, strain TNcc-HI) (UniProt P26664). In words: ELISA on lectin-captured E1/E2 complexes, negative control (FIG. 12).
Experiment [2] concerns the target DBNcc-HI E1/E2 complexes from lysates of HEK293 cells transfected with an E1/E2 expression plasmid (hepatitis C virus genotype 3a, strain DBNcc-HI) (UniProt Q81258). The description is as above.
Experiment [3] addresses J6cc-HI E1/E2 complexes from lysates of HEK293 cells transfected with an E1/E2 expression plasmid (hepatitis C virus genotype 2a, strain J6cc-HI) (UniProt P26660). The description is as above.
The target of experiment [4] is TNcc-HI E1/E2 complexes from lysates of HEK293 cells transfected with an E1/E2 expression plasmid (hepatitis C virus genotype 1a, strain TNcc-HI) (UniProt P26664). In words: ELISA on lectin-captured E1/E2 complexes, negative control (FIG. 13). For orientation: ELISA stands for enzyme-linked immunosorbent assay.
The target in experiment [5] is DBNcc-HI E1/E2 complexes from lysates of HEK293 cells transfected with an E1/E2 expression plasmid (hepatitis C virus genotype 3a, strain DBNcc-HI) (UniProt Q81258). The description is as above.
Experiment [6] concerns the target J6cc-HI E1/E2 complexes from lysates of HEK293 cells transfected with an E1/E2 expression plasmid (hepatitis C virus genotype 2a, strain J6cc-HI) (UniProt P26660). The experiment is described as above.
Experiment [7] has as its target TNcc-HI E1/E2 complexes from lysates of HEK293 cells transfected with an E1/E2 expression plasmid (hepatitis C virus genotype 1a, strain TNcc-HI) (UniProt P26664). In words: ELISA on lectin-captured E1/E2 complexes, negative control (FIG. 11).
Experiment [8] concerns the target DBNcc-HI E1/E2 complexes from lysates of HEK293 cells transfected with an E1/E2 expression plasmid (hepatitis C virus genotype 3a, strain DBNcc-HI) (UniProt Q81258). The experiment is described as above.
In experiment [9] the target is J6cc-HI E1/E2 complexes from lysates of HEK293 cells transfected with an E1/E2 expression plasmid (hepatitis C virus genotype 2a, strain J6cc-HI) (UniProt P26660). Described as above.
In experiment [10] the target is envelope proteins E1/E2 of the original genotype 3a recombinant virus DBN3acc (hepatitis C virus genotype 3a, strain DBN3acc) (UniProt Q81258). In words: cell-based or functional assay.
Experiment [11] addresses envelope proteins E1/E2 of high-yield genotype 1a recombinant virus TNcc-HI (hepatitis C virus genotype 1a, strain TNcc-HI) (UniProt P26664). In words: cell-based or functional assay.
The target of experiment [12] is envelope proteins E1/E2 of high-yield genotype 3a recombinant virus DBNcc-HI (hepatitis C virus genotype 3a, strain DBNcc-HI) (UniProt Q81258). In words: cell-based or functional assay.
The target of experiment [13] is envelope proteins E1/E2 of high-yield genotype 2a recombinant virus J6cc-HI (hepatitis C virus genotype 2a, strain J6cc-HI) (UniProt P26660). Kind of experiment: cell-based or functional assay.
Experiment [14] addresses envelope proteins E1/E2 of the genotype 1a HCV seed stock derived from TNcc-PP-18 (hepatitis C virus genotype 1a, strain TNcc) (UniProt P26664). Kind of experiment: cell-based or functional assay.

As for “ECL sheep anti-mouse IgG horseradish-peroxidase linked whole antibody (GE Healthcare)”, the OD at 450 nm in experiment [1], in experiment [2], in experiment [3], in [4], in experiment [5] and in experiment [6] was 0.05 OD each time. Further, the OD at 450 nm in [7], in [8] and in experiment [9] was 0.05 OD in each case.
For the substance human monoclonal antibody AR4A, the fold increased neutralization sensitivity against 3a(DBN) was 22 fold in experiment [10] and 220 fold in experiment [12]. Further, the fold increased neutralization sensitivity against 1a(TN) in experiment [11] turned out to be 2400 fold; in experiment [14], 15 fold. The fold increased neutralization sensitivity against 2a(J6) in experiment [13] amounted to 12 fold.
human monoclonal antibody AR3A: the fold increased neutralization sensitivity against 3a(DBN) in experiment [10] was 167 fold; in experiment [12] it was 1250 fold. In addition, the fold increased neutralization sensitivity against 1a(TN) in experiment [11] is 300 fold; in [14], 3 fold. Also, the fold increased neutralization sensitivity against 2a(J6) in experiment [13] is 440 fold.

Source of the values: patent publication US20260263580A1.
